The record followed here is article PMC4216188.

The assay deals with I53A FLAG-Pen-2 (human) (UniProt Q9NZ42). Description: co-IP.
Sequence of UniProt Q9NZ42 (Q9NZ42 whole entry I53A): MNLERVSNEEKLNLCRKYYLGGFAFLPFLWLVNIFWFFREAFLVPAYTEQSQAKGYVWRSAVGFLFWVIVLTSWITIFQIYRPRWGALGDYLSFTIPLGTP

“presenilin 1 C-terminal fragment (PS1-CTF) (domain or fragment)”: the PS1-CTF associated with immunoprecipitated Pen-2, percent of wt is < 40 % of wt.
